Where no end group is shown, it is not given here. The star is where a group is joined. Biotin = O=C1N[C@H]2[C@H](CS[C@H]2CCCCC(=O)*)N1; Cam = NC(=O)C*
Biological target: Recombinant SARS-CoV-2 spike RBD protein (SARS-CoV-2, UniProt P0DTC2)
Assay: SPR

| Binder | Kd [µM] |
| --- | --- |
| Biotin-SCFDFLNWASCDGGGS (cysteine pairing not given here) [biotinylated peptide 1 (second synthesis)] | 5.8 |
| Biotin-SC(Cam)FDFLNWASCDGGGS [biotinylated peptide 6 (second synthesis)] | ~19 |
